The source of these data is article PMC12630593.

Among the targets are NFI-X193 R115W (mouse, UniProt P70257 14-193, R115W); NFI-X193 R116P (mouse, UniProt P70257 14-193, R116P); NFI-X193 K113E (mouse, UniProt P70257 14-193, K113E); NFI-X193 K125E (mouse, UniProt P70257 14-193, K125E); NFI-X193 R116Q (mouse, UniProt P70257 14-193, R116Q); NFI-X193 R121P (mouse, UniProt P70257 14-193, R121P); NFI-X193 (NFI-X DBD) (mouse, UniProt P70257 14-193).
Common to all, as to assay: EMSA

B1: NFI-31bp Cy5 probe (dsDNA)
DNA 1: GGGTCTCTTTGGCAGGCAGCCAACCAGCAAA
DNA 2: TTTGCTGGTTGGCTGCCTGCCAAAGAGACCC
B1: the binding result with NFI-X193 R115W was “no binding”; with NFI-X193 R116P, “no binding”; with NFI-X193 K113E it was “no binding”; with NFI-X193 K125E, “no binding”; with NFI-X193 R116Q, “no binding”; with NFI-X193 R121P it was “binds”. This molecule also registered a Kd with NFI-X193 (NFI-X DBD) of 48.1 ± 0.49 nM.
